Results taken from paper PMC4169507.

Biological target: fibronectin (UniProt P02751)
Experiment: SPR
Conditions: not given

Row | Substance | Kd
1 | AggAdsA triple mutant (Lys73Ala, Lys76Ala, and Lys78Ala) (domain or fragment) | > 200 µM
2 | AggBdsA (AAF/I minor subunit AggB complemented with the donor strand of AggA) (domain or fragment) | 100 µM

Biological target: fibronectin (UniProt P02751)
Experiment: bacterial adherence to fibronectin-coated 96-well plates (colony counting)
Conditions: plates coated with 25 µg/ml of fibronectin; in the presence of arabinose; parent: 100; read off a plot

Row | Substance | percent of parent (% of binding to Fn)
3 | AafA, major subunit of AAF/II, on wild type EAEC 042 D14A | 99
4 | AafA, major subunit of AAF/II, on wild type EAEC 042 E57A | 76
5 | AafA, major subunit of AAF/II, on wild type EAEC 042 E131A | 75
6 | AafA, major subunit of AAF/II, on wild type EAEC 042 G69A | 81
7 | AafA, major subunit of AAF/II, on wild type EAEC 042 K66A | 0
8 | AafA, major subunit of AAF/II, on wild type EAEC 042 K66R | 51
9 | AafA, major subunit of AAF/II, on wild type EAEC 042 K72A | 6
10 | AafA, major subunit of AAF/II, on wild type EAEC 042 K72R | 100
11 | AafA, major subunit of AAF/II, on wild type EAEC 042 L132A | 79
12 | AafA, major subunit of AAF/II, on wild type EAEC 042 N88A | 70
13 | AafA, major subunit of AAF/II, on wild type EAEC 042 R23A | 12
14 | AafA, major subunit of AAF/II, on wild type EAEC 042 R40A | 2
15 | AafA, major subunit of AAF/II, on wild type EAEC 042 R44A | 6
16 | AafA, major subunit of AAF/II, on wild type EAEC 042 S30A | 65
17 | AafA, major subunit of AAF/II, on wild type EAEC 042 S73A | 80
18 | AafA, major subunit of AAF/II, on wild type EAEC 042 T38L | 72
19 | AafA, major subunit of AAF/II, on wild type EAEC 042 T77A | 67
20 | AafA, major subunit of AAF/II, on wild type EAEC 042 T114A | 71
